The values that follow come from article PMC5430804, “Structural and biochemical insights of CypA and AIF interaction” (Scientific Reports, 2017).

The chains are these.
B2: AIF(370-394) synthetic peptide (peptide, UniProt O95831 370-394, looked up)
peptide: QSVGVSSGKLLIKLKDGRKVETDHI
notes: also called AIF peptide; source: synthetic peptide

Settings in all cases: both partners purified
The target in assay [1] is T1, Apoptosis Inducing Factor, pro-apoptotic form AIF(Δ1-121) (UniProt O95831 122-613).
T1 construct: also called apoptogenic form of AIF
As to the kind of experiment: EnSpire label-free direct binding assay; direct binding of CypA peptides, CypA or CypA R55A with AIF(370-394) or AIF(Δ1-121); details (who was immobilised) in the Supplementary Information.

Assay [2] concerns the target B2. The description is as above.
The target of assay [3] is T2, His-tagged Cyclophilin A (CypA) (UniProt P62937 1-165).
T2 construct: Cyclophilin A (CypA), peptidyl-prolyl isomerase; Uniformly 15N-labelled for the NMR experiments, unlabelled elsewhere; also called CypA wild type; 15N-CypA; source: bacteria, IPTG-induced, purified (His-trap HP, size exclusion chromatography)
The description is as above.

The target of the next assay is T3, CypA R55A mutant (UniProt P62937 1-165, R55A).
T3 construct: Cyclophilin A (CypA) with R55A; the R55A mutant corresponding to His-tagged CypA; The starting construct carried a Myc tag; also called R55A CypA mutant; R55A mutated CypA; source: prepared starting from the construct pCMV6-AC-Myc-CypA^R55A
The description is as above.

In assay [4] the target is T2, His-tagged Cyclophilin A (CypA). Briefly: ITC; AIF(370-394) 0.7 mM injected (20 x 2 μL) into CypA 5 μM, 25 °C, PBS 1X with 1 mM DTT, pH 7.4; single-site model; triplicate. (Isothermal titration calorimetry measures the heat released or taken up as one component is titrated into another.)

T1 sequence (O95831 122-613, stated change not applied): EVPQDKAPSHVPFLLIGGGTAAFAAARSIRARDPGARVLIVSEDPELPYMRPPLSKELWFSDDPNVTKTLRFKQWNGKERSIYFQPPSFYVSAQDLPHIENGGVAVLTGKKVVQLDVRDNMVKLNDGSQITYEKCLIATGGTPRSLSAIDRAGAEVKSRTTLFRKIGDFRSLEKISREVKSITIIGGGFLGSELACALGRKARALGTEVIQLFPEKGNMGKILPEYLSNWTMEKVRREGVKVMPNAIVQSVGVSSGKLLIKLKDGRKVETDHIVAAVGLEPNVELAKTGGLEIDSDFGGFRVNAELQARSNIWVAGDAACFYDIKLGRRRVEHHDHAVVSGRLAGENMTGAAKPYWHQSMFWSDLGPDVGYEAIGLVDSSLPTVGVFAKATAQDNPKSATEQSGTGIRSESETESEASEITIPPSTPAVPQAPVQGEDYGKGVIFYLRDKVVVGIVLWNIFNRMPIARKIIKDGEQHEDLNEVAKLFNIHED
T2 sequence (P62937 whole entry): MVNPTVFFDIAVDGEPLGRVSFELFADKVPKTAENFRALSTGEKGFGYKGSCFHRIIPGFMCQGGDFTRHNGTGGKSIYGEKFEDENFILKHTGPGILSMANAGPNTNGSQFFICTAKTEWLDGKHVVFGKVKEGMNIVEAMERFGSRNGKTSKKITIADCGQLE
T3 sequence (P62937 whole entry R55A): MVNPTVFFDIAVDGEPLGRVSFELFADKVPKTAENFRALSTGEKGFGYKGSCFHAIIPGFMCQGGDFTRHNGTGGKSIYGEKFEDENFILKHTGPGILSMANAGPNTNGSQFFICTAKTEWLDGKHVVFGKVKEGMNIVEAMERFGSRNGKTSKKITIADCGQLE

B1: CypA(55-69) + (67–79), two peptides tested in combination (other)
peptide 1: RIIPGFMCQGGDFTR
peptide 2: FTRHNGTGGKSIY
notes: Cyclophilin A (CypA), residues 55-69; Cyclophilin A (CypA), residues 67-79; A mixture of separate peptides; source: synthetic peptides, combined
As usually defined, the Kd is a measure of binding affinity in units of concentration. Lower therefore signals a tighter complex. Turning to B1, the results for the Kd in assay [1] and in assay [2] were 51.4 ± 12.2 µM and 34.9 ± 8.1 µM, respectively.

B2: the Kd amounted to 3 ± 0.6 µM in assay [3], 3.1 ± 0.7 µM with CypA R55A mutant and 6 µM in assay [4].

B3: CypA(67-79) + (49–62), two peptides tested in combination (other)
peptide 1: FTRHNGTGGKSIY
peptide 2: KGSCFHRIIPGFMC
notes: Cyclophilin A (CypA), residues 67-79; Cyclophilin A (CypA), residues 49-62; A mixture of separate peptides; source: synthetic peptides, combined
Take B3: the Kd in assay [1] amounted to 2.8 ± 0.9 µM; in assay [2] it was 3.1 ± 1.3 µM.

B4: CypA(99-109) + (83–90), two peptides tested in combination (other)
peptide 1: SMANAGPNTNG
peptide 2: FEDENFIL
notes: Cyclophilin A (CypA), residues 99-109; Cyclophilin A (CypA), residues 83-90; A mixture of separate peptides; source: synthetic peptides, combined
For B4, binding in assay [2] was put at a Kd of 304 ± 10.8 µM.

B5: CypA(55-69) + (67–79) + (49-62), three peptides tested in combination (other)
peptide 1: RIIPGFMCQGGDFTR
peptide 2: FTRHNGTGGKSIY
peptide 3: KGSCFHRIIPGFMC
notes: Cyclophilin A (CypA), residues 55-69; Cyclophilin A (CypA), residues 67-79; Cyclophilin A (CypA), residues 49-62; A mixture of separate peptides; source: synthetic peptides, combined; copies: + +
Regarding B5, the Kd in assay [1] is 25.2 ± 5 µM; in assay [2] it was 20.7 ± 6.5 µM.

B6: CypA(121-131) + (83–90), two peptides tested in combination (other)
peptide 1: WLDGKHVVFGK
peptide 2: FEDENFIL
notes: Cyclophilin A (CypA), residues 83-90; A mixture of separate peptides; source: synthetic peptides, combined
As for B6, the dissociation constant (Kd) in assay [1] came out at 31.3 ± 2.8 µM; in assay [2] it was 87 ± 5.8 µM.

B7: CypA(55-69) peptide with R69 replaced by alanine (peptide, UniProt P62937 55-69, looked up)
peptide: RIIPGFMCQGGDFTA
notes: Cyclophilin A (CypA), residues 55-69, R69 replaced by alanine; also called CypA(55-69)R69; source: synthetic peptide
In the case of B7, the Kd in assay [1] was more than 1000 µM.

B8: CypA(121-131) + (99–109), two peptides tested in combination (other)
peptide 1: WLDGKHVVFGK
peptide 2: SMANAGPNTNG
notes: Cyclophilin A (CypA), residues 99-109; A mixture of separate peptides; source: synthetic peptides, combined
On to B8, for which the Kd worked out at 27.2 ± 5.8 µM in assay [1] and 43 ± 6.8 µM in assay [2].

B9: CypA(55-69) + (49–62), two peptides tested in combination (other)
peptide 1: RIIPGFMCQGGDFTR
peptide 2: KGSCFHRIIPGFMC
notes: Cyclophilin A (CypA), residues 55-69; Cyclophilin A (CypA), residues 49-62; A mixture of separate peptides; source: synthetic peptides, combined
B9: the Kd in assay [1] was found to be 2.2 ± 0.7 µM; in assay [2], 4.6 ± 1.3 µM.

B10: CypA(121-131) + (99–109) + (83-90), three peptides tested in combination (other)
peptide 1: WLDGKHVVFGK
peptide 2: SMANAGPNTNG
peptide 3: FEDENFIL
notes: Cyclophilin A (CypA), residues 99-109; Cyclophilin A (CypA), residues 83-90; A mixture of separate peptides; source: synthetic peptides, combined; copies: + +
Take B10: the dissociation constant (Kd) in assay [1] amounted to 38.8 ± 4.6 µM; in assay [2], 268 ± 9.65 µM.
